This note sets out measurements from article PMC8545111, “Molecular Basis of the Versatile Regulatory Mechanism of HtrA-Type Protease AlgW from Pseudomonas aeruginosa” (mBio, 2021).

Residue numbers refer to the chain shown, from its start.

Sequences and labels used below:
B1: AlgW-E151A (protein)
chain: VGLPRQEVHVEQAPLLSRLQEGPVSYANAVSRAAPAVANLYTTKMVSKPSHPLFDDPMFRRFFGDNLPQQKRMESSLGSAVIMSAEGYLLTNNHVTAGADQIIVALRDGRETIAQLVGSDPATDLAVLKIDLKNLPAMTLGRSDGIRTGDVCLAIGNPFGVGQTVTMGIISATGRNQLGLNTYEDFIQTDAAINPGNSGGALVDAAGNLIGINTAIFSKSGGSQGIGFAIPTKLALEVMQSIIEHGQVIRGWLGVEVKALTPELAESLGLGETAGIVVAGVYRDGPAARGGLLPGDVILTIDKQEASDGRRSMNQVARTRPGQKISIVVLRNGQKVNLTAEVGLRPPPAPAPQQKQDGGE
modifications: left off: His6, C-terminal, state not stated
B2: AlgW-E285A (protein)
chain: B1 chain with A122E, E256A
modifications: left off: His6, C-terminal, state not stated
B3: AlgW-W281A (protein)
chain: B1 chain with A122E, W252A
modifications: left off: His6, C-terminal, state not stated
B4: AlgW-R347A (protein)
chain: B1 chain with A122E, R318A
modifications: left off: His6, C-terminal, state not stated
B5: AlgW-L282A (protein)
chain: B1 chain with A122E, L253A
modifications: left off: His6, C-terminal, state not stated
B6: AlgW-V284A (protein)
chain: B1 chain with A122E, V255A
modifications: left off: His6, C-terminal, state not stated
B7: AlgW-E266A (protein)
chain: B1 chain with A122E, E237A
modifications: left off: His6, C-terminal, state not stated
B8: AlgW-R279A (protein)
chain: B1 chain with A122E, R250A
modifications: left off: His6, C-terminal, state not stated
B9: AlgW-Y212A (protein)
chain: B1 chain with A122E, Y183A
modifications: left off: His6, C-terminal, state not stated
B10: AlgW-R374A (protein)
chain: B1 chain with A122E, R345A
modifications: left off: His6, C-terminal, state not stated
B11: AlgW-D149A (protein)
chain: B1 chain with D120A, A122E
modifications: left off: His6, C-terminal, state not stated

One assay deals with AlgW and mutants. The assay is described as follows: Apparent activation parameters of AlgW and mutants (peptide agonist gradient). It counts as biochemical, Pseudomonas aeruginosa. The conditions noted are these: peptide activator (decapeptide) gradient; substrate Abz-VLAG-pNA; Michaelis-Menten fit; means of three independent determinations; read-out: Half-maximal activation concn. The source says: For the enzyme mechanism of AlgW (30–389) and mutants, two internally quenched fluorescent peptide substrates incorporating the peptidase cleavage site of MucA/MucB, Abz-VLAG-pNA and Abz-TVAW-pNA, were designed and synthesized (GL Biochem Shanghai Ltd., China). In the intact peptide, the fluorescence of the anthraniloyl group is quenched by the P-nitroaniline (Abz is a fluorogenic group, and pNA is a quencher of fluorescence). This quenched fluorescence is liberated upon cleavage of peptide by 200 nM AlgW and mutants (200/3 nM for trimer), resulting in increased fluorescence that can then be monitored fluorometrically. Prior to the assay, all enzyme preparations were incubated with 10 mM agonist peptides (WVF or SVRDELRWVF) for 30 min at room temperature. All assays were placed in a buffer containing 25 mM Tris (pH 7.5) and 150 mM NaCl at 37°C for 1 h, and the final assay volume was 100 μl. The fluorescent degradation products were monitored at 60-s intervals at fluorescence wavelength—λex = 310 nm, λem = 420 nm ([41]). All data points were representative of three independent determinations and were simulated with solid lines with the formula Y = Vmax · X^h/(Km ^h + X^h) or Y = Vmax · X^h/(Khalf^h + X^h) or the Michaelis-Menten formula (Y = Vmax · X/[Km + X]). Substrate versus velocity was used to determine Km and Vmax, and agonists versus velocity was used to determine the half-maximal activation concentration and maximum activation rate of agonists. The fitting and calculation of data were carried out using Prism 7 (GraphPad, CA, USA).
B1: the EC50 stood at 2990 ± 560 nM.
Same read-out and setting: the figure for B2 is 3840 ± 1090 nM; for B3 it is 1510 ± 720 nM.
Still for that read-out and setting: the value for B4 was 1850 ± 990 nM; that for B5 was 2760 ± 1190 nM; that for B6 was 3560 ± 730 nM.
Same read-out and setting: the figure for B7 is 1080 ± 500 nM; for B8 it is 2190 ± 990 nM; for B9 it is 2120 ± 620 nM.

The same assay, now with this note: peptide activator (decapeptide) gradient; substrate Abz-VLAG-pNA; Tris pH 7.5, 150 mM NaCl, 37°C; Michaelis-Menten fit; means of three independent determinations.
For the molecule B10, the Maximal cleavage activity turned out to be 5.45 ± 0.68 µM/min.
Consider B1, for which the Maximal cleavage activity came to 34.93 ± 1.87 µM/min.
For B2, the Maximal cleavage activity was 57.5 ± 4.9 µM/min.
The same measure, in the same setting: the value for B3 was 10.32 ± 1.51 µM/min.
The same measure, in the same setting: the figure for B11 is 8.16 ± 0.85 µM/min.
On to B4, for which the Maximal cleavage activity turned out to be 63.5 ± 8.42 µM/min.
With B5, the Maximal cleavage activity amounted to 13.24 ± 1.59 µM/min.
Still for that read-out and setting: the figure for B6 is 63.13 ± 3.82 µM/min; for B7 it is 60.51 ± 5.07 µM/min.
B8: the Maximal cleavage activity is 26.87 ± 3.21 µM/min.
On the same count and under the same terms, the value for B9 was 39.46 ± 6.17 µM/min.
